Source: patent US20050084492A1, “Assay method to monitor the response of anti-cytokine therapy” (priority 2003, published 2005)

Columns and labels:
IL-6 = IL-6 (Homo sapiens, UniProt P05231); assay: Inhibition of IL-6/sIL-6R/IL-1β induced SAA production from A498 cell line, SAA ELISA; type: cell-based; conditions: A498 cells; IL-6 (100 ng/ml), sIL-6R (200 ng/ml) and IL-1b (1 ng/ml) pre-incubated with serial dilutions of antibody; dose dependent (FIG. 2A & B)
Description: (§1) A-498, a renal carcinoma cell line was purchased from ATCC (Rockville, Md.). Cells were maintained according to ATCC instructions in log phase of cell growth in DMEM/10% heat-inactivated FBS, 1% L-Gut, 1% NEAA and 1% NaPyr. CNTO 328, an anti-human IL-6 antibody developed at Centocor and disclosed in U.S. patent application Ser. No. 10/280,716, hereby incorporated by reference into the present application, was used at several concentrations in the assay. F 105, human anti-gp 120 IgGl, also developed at Centocor, was used as a negative control antibody. Anti-SAA monoclonal antibody (clone REU-86.2, Research Diagnostics, Inc.) was used for SAA immunostaining.
(§2) A498 cells were cultured for 24 hrs in 96-well flat bottom tissue culture plates at a concentration of 6×10^4 cells/100 ul in DMEM complete media at 37 °C./5% CO2. Cells were washed with PBS then starved for 1 hr in 100 ul of serum free DMEM media at room temp. A combination of IL-6 (100 ng/ml), sIL-6R (200 ng /ml) and IL-1b (1 ng/ml) mixture was incubated with serial dilutions of CNTO 328 or F105 control antibody for 30 minutes at room temperature. 100 ul of the mixture was added to the cells and incubated at 37 °C./5% CO2 overnight.
(§3) The cell culture supernatant was assayed immediately for hSAA production using Biosource human SAA kit (Camrillo, Calif.) following manufacturer's instructions.

A498 cells = assay: Induction of SAA production in A498 renal carcinoma cells by cytokines, SAA ELISA of culture supernatant; type: cell-based; conditions: human renal tumor A498 cells stimulated overnight with the cytokine(s); SAA in culture supernatant by ELISA (FIG. 2A)
Description: as §1, §2, §3

Sequence of IL-6 (P05231 30-212): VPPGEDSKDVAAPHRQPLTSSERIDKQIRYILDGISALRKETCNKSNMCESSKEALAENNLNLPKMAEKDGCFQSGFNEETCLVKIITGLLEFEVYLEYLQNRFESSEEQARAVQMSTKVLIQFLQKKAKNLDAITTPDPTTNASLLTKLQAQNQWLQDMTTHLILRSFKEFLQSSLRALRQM

inhibition of IL-6/sIL-6R/IL-1β induced SAA production (IL-6) | Substance | SAA produced in culture (A498 cells)
completely inhibited | CNTO 328: an anti-human IL-6 antibody developed at Centocor and disclosed in U.S. patent application Ser. No. 10/280,716 | 
 | IL-1b: cytokine used to stimulate A498 cells | < 100 ng/mL
